Biological target: hnRNP A1 internal_change (UniProt P09651)
Test: SPR
Conditions: hnRNP A1 immobilized; very hard to regenerate; called non-special binding; phosphorothioate at all 30 linkages (stereorandom); SPR: 10 mM PBS (138 mM NaCl, 2.7 mM KCl, 10 mM Na2HPO4, 1.76 mM KH2PO4, 0.05% Tween-20), pH 7.4, 25 C, aptamer 0.39-50 nM; BLI: biotinylated aptamer on SA …

hnRNP A1 internal_change, sequence (P09651 other isoform, or with tags, fused parts or gaps): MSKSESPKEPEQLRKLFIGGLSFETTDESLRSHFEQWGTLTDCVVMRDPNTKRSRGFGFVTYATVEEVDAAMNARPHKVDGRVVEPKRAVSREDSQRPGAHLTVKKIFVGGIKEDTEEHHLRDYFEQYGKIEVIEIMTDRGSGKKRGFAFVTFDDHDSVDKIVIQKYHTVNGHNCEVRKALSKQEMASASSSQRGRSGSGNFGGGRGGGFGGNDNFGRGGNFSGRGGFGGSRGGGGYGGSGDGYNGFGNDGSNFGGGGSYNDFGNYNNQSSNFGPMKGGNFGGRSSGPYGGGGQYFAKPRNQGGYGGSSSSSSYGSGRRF

TGTGGCGAGGTAGGTGGGGTGTGTGTGTATC [WW-20]
Kd: 0.014 nM

Source: PMC8273494
